Measurements published in paper PMC2837848 (Biochemistry, 2010).

Target: the molecule itself
Assay: SEC

Protein	stoichiometry N
Salmonella typhimurium QAPRTase R118A (enzyme) MPPRRYNPDDRRDALLERINLDIPAAVAQALREDLGGEVDAGNDITAQLLPADTQAHATVITREDGVFCGKRWVEEVFIQLAGDDVRLTWHVDDGDAIHANQTVFELNGPARVLLTGEATALNFVQTLSGVASEVRRYVGLLAGTQTQLLDTRKTLPGLRTALKYAVLCGGGANHRLGLTDAFLIKENHIIASGSVRQAVEKAFWLHPDVPVEVEVENLDELDDALKAGADIIMLDNFNTDQMREAVKRVNGQARLEVSGNVTAETLREFAETGVDFISVGALTKHVRALDLSMRFC	2
Salmonella typhimurium QAPRTase R175A (enzyme) MPPRRYNPDDRRDALLERINLDIPAAVAQALREDLGGEVDAGNDITAQLLPADTQAHATVITREDGVFCGKRWVEEVFIQLAGDDVRLTWHVDDGDAIHANQTVFELNGPARVLLTGERTALNFVQTLSGVASEVRRYVGLLAGTQTQLLDTRKTLPGLRTALKYAVLCGGGANHALGLTDAFLIKENHIIASGSVRQAVEKAFWLHPDVPVEVEVENLDELDDALKAGADIIMLDNFNTDQMREAVKRVNGQARLEVSGNVTAETLREFAETGVDFISVGALTKHVRALDLSMRFC	2
Salmonella typhimurium QAPRTase H188A (enzyme) MPPRRYNPDDRRDALLERINLDIPAAVAQALREDLGGEVDAGNDITAQLLPADTQAHATVITREDGVFCGKRWVEEVFIQLAGDDVRLTWHVDDGDAIHANQTVFELNGPARVLLTGERTALNFVQTLSGVASEVRRYVGLLAGTQTQLLDTRKTLPGLRTALKYAVLCGGGANHRLGLTDAFLIKENAIIASGSVRQAVEKAFWLHPDVPVEVEVENLDELDDALKAGADIIMLDNFNTDQMREAVKRVNGQARLEVSGNVTAETLREFAETGVDFISVGALTKHVRALDLSMRFC	2
Salmonella typhimurium QAPRTase K185A (enzyme) MPPRRYNPDDRRDALLERINLDIPAAVAQALREDLGGEVDAGNDITAQLLPADTQAHATVITREDGVFCGKRWVEEVFIQLAGDDVRLTWHVDDGDAIHANQTVFELNGPARVLLTGERTALNFVQTLSGVASEVRRYVGLLAGTQTQLLDTRKTLPGLRTALKYAVLCGGGANHRLGLTDAFLIAENHIIASGSVRQAVEKAFWLHPDVPVEVEVENLDELDDALKAGADIIMLDNFNTDQMREAVKRVNGQARLEVSGNVTAETLREFAETGVDFISVGALTKHVRALDLSMRFC	2
Salmonella typhimurium QAPRTase R152A (enzyme) MPPRRYNPDDRRDALLERINLDIPAAVAQALREDLGGEVDAGNDITAQLLPADTQAHATVITREDGVFCGKRWVEEVFIQLAGDDVRLTWHVDDGDAIHANQTVFELNGPARVLLTGERTALNFVQTLSGVASEVRRYVGLLAGTQTQLLDTAKTLPGLRTALKYAVLCGGGANHRLGLTDAFLIKENHIIASGSVRQAVEKAFWLHPDVPVEVEVENLDELDDALKAGADIIMLDNFNTDQMREAVKRVNGQARLEVSGNVTAETLREFAETGVDFISVGALTKHVRALDLSMRFC	2
